Drawing on paper PMC3143260 (2012), this text covers Kd for two molecules.

Test [1] deals with T1, RPP21 (Pyrococcus furiosus, UniProt Q8U0H6).
T1 chain: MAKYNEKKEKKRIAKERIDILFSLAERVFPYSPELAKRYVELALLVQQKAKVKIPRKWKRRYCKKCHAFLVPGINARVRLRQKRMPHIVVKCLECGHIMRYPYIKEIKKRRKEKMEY
Put plainly: ITC. (ITC needs no label: the signal is the heat of the interaction.)

Test [2] addresses T1, RPP21. Put plainly: ITC.

Like-named read-outs stand apart in the source and are kept apart here.

B1: RPP29 18-127 (protein)
chain: GSYQEIIGRTWIFRGAHRGRVNKKNIVWHELIGLKVRVVNSTHPGYVGIEGYVIDETRNMLVIAGENKVWKVPKDVCIFEFETWDGTKIKISGEKLVGRPEMRLKKRWRK
In general, Kd refers to the concentration at which binding is half-saturated. The low end stands for a tighter complex, the high end for a looser complex. In the case of B1, in the test with RPP21 [1], the Kd is 230 nM.

B2: RPP29 1-127 (protein)
chain: MWRNSEERENRTSGRSQGSYQEIIGRTWIFRGAHRGRVNKKNIVWHELIGLKVRVVNSTHPGYVGIEGYVIDETRNMLVIAGENKVWKVPKDVCIFEFETWDGTKIKISGEKLVGRPEMRLKKRWRK
As for B2, the Kd with RPP21 [1] and in the test with RPP21 [2] was 250 nM in each case.
